Measured values as given in the nanobody polyreactivity screen of Harvey et al. (2022).

Experiment: yeast display, Sf9 membrane polyspecificity reagent, FACS + sequencing; frameworks hold sequencing errors
Outline: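 Galactose-induced (36–48 hours) yeast carrying a synthetic nanobody display library were exposed to 10% biotinylated, detergent-solubilized Sf9 membrane reagent at 4 °C for 1 hour. FACS followed streptavidin microbead enrichment, using low and high (top ~1%) gates for expression (anti-HA) and reagent binding (streptavidin). Colony PCR, MiSeq 2 × 250 sequencing and CDR-length filtering followed. Labels for polyreactivity reflect the gate of origin.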

Sequence | polyreactivity (PSR sort gate)
RVQHVESGGGLVQAGGSLRLSCAASGYTFEAYAMGWYRPAPGKERELVAAINYSGGSTYADSVKGRFTISRDNAKNNVYLQMHSLKPEDTAVYYCATRLYGYWTYGFDYWGQGTQVTVSS | low polyreactivity
QVQLVESGGGLVQAGGSLRLSCAASGFTFKKNAMGWYRPAPGKERELVAAISRSGGITYYADSVKGRFTISRDNAKNTVYLQMNSLKPEDTAVSYCATQTYRTPAYPAYGYWGQGTQVTVSS | high polyreactivity
QVQLVESGGGLVQAGGSLRLSCAASGRIFSQYDMGWYRPAPGKERELVAAISGGVGTNYADSVKGRFTISRDNAKNTVYLQMNSLKPEDTAVYYCAADYSFERSEYEYWGQGTQVTVSS | low polyreactivity
QVQLVESGGGLVQAGGSLRLSCAASGTFYYYAMGWYRQAPGKERELVAAISNGDSTTYADSVKGRFTISRDNAKNTVYFQMNSLKPEDTAVYYCAAYRYTPRTSRGYYYWGQGTQVTVSS | low polyreactivity
QVQLEESGGGLVQAGGSLRLSCPASGSTFGKNAMGWSRQAPGKERELVASITWRGGCTYYADSVKGRITISRDNAKNTVFLQMNSLKPEDTAVYYCATNWHIHIGSYKYYYWGQGTQVTVSS | low polyreactivity
QVQLVESRWRFVQAGGSLRLSCAASGSIFADYAMGWYRQATGKERELVAAITFSGGSTYYADSVKGRFTISRDNENNTVYLQMNSLKPEDTAVYYCAARWRYRYYSWGQGTQVTVSS | high polyreactivity
QVQLEESGGGLVQAGGSLRLSCAASGRIFGSYAMGWYRQAAGNERELVAAITRSGGSTYYADSVKGRFTISRDNAKNTVYLQMNSLTPEDTAVYYCAAYFRFSGSAKFGYWGQGTQVTVSS | high polyreactivity
QVQLVESGGGLVQAGGSLRLSCAASGRTFNLYAMGWYRQAPGKERELVAAIRYSDTSTYYADSVKGRFTISRDNAKNTVYLQMNSVKPEDTAVYYCAAYPGYKGGNYGYWGQGTKVTVSS | low polyreactivity
QVQLVETGGGLVQAGGSRRVSCAASGFIFWWYPMGWYRQSPGKERELVAAISGRGGSTYYADSVKRRFTISRDNAKNTVYLQMNSQKPEDTAVYYCAARLPWSYYRTQGYNYGGQGTQVTVSS | high polyreactivity
QVQLEETGGGLVQAGGSLRISCAASGFIFSYNAMGWYRQAPGKERELVATITRRGGGTTYADSVKGRFTISRDNAKNTVYLQMNSLIPEDTAVYYCNRDVNSKLSFGSVGYDYWGQGTQVTVSS | low polyreactivity
QVQLVESGGGLVQAGGSLRLSCAASGSTFPVNAMGWYRQAPGKERELVAAISSRGSSTYYADSVKGRFTISRDNAKNTVYLQMNSLKPEDTAVYYCAAPQRYPRFYYWGQGTQVTVSS | high polyreactivity
QVQLVESGGGLVQAGGSLRLSCAASGSIFHGYAMRWYRQAPGKERELVAAISRNGGGTYYADSVKGRFTISRDNAKNTVYLQMNSLKPEDTAVYYCAVVRYSSRYDYWGQGTQVTVSS | high polyreactivity
QVQLVESGGGLVQAGGSRRLSCAASGISFGSYVMGWYRQAPGKERELVAAISWSGGSTNYADSVKGRFTISRDNSKNTVYLQMNILKPEDTAVFYCAAEYDVYGYYYWGQGTQVTVSS | high polyreactivity
QLQLVESGGGLVQAGGSLRLSCAASGSIFDGNAMGWYRQAPGKERELVAAITNSGGSTYYADSVKGRFTISRDNAKNTVYLQMNSLKPEDTAVYYCNALPFAWRRYRWVRTMYYWGQGTQVTVSS | low polyreactivity
QVQLVESGGGLVQAGGSLRLSCAASGRTFGPYVMGWYRQAPGKERELVAAISFSGGSTYYADSVKGRFTISRDNAKNTVYLQMNSLKPEDTAVYYCAARAVGGVRGYRYDYWGQGTQVTVSS | high polyreactivity
QVQLVESGGGLVQAGGSLRLSCAASGFIYYSYTMGWYRQAPGKERELVATISSNGGRTYYADSVKGRYTISRDNAKNTVYLQMNSLKPEDTAVYYCATDVPHGYYWSYGDYYWGQRTQVTVSS | low polyreactivity
QVQLVESGGGLVQAGGSLRLSCAASGSIFAAYTMGWYRQAPGKQRELVAAISSGTRTNYADSVKGRFTISRDNAKNTVYLQLNSLKPEDTAVYYWNADVSALWWPEEWYNASEFDYWGQGTQVTVSS | low polyreactivity
QVQLVESGGGLVQAGGSLRLRCAASGSTFGYYSMGWYRQAPGKEMELVAAISKSGGRTYYADSVKGRFTISRDTAKNTVYVQMNSLKPEDTAVYYCNKANGGDEVDYWGQGTQVTVSS | high polyreactivity
QVQLVESGGGLVQAGASLRLSCAASGNTFDVYAMGWYREAPGKERELVAAISRRGGSTSYADSVKGRFTISRDNAKNTFYFHMNSLKPEDTAVYYCNTDPGKYTPFDYLGQGTQVTVSS | high polyreactivity
QVQLVESGGGLVQAGGSLRLTCAASGRIAWYRQAPGKERELVAAITSGDRTNYADSVKRRFTISRDNAKNTVYFQMNSLKPEDTAVYYCATEPSWYHGFIDPRGYWGQGTQVTVSS | low polyreactivity
QVQLVESGGGLVQAGGSLRLSCAASGYTFKRYAMGWSRQAPGKERELVAAISSSGSSTYYADSVKGRFTISRDNAKNTVYLQMNSLKPEDTAVYYCAAVYRYGYWGQGTQVTVSS | high polyreactivity
QVQLVESGGGLVQARGSLRLSCAASGSIFGKNVMGWYRQAPGKERELVAAISRSGGRTYYADSVKGRFTISRDNAKNTVYLQMNSLKPEDTAVYYCAADGQPIGQQTYDYWGQGTQVTVSS | high polyreactivity
QVQIVESGGGLVQAGRSLRLSCAASGIIFRRYAMGWYRQAPGKETELVAAISSRGGSTYYADSVKGRFTISRDNAKNTVYLQMNSLKPEDTAVYYCAKGFSGTGGSGDFGYWGQGTQVTVSS | high polyreactivity
QVQLVESGGGLVQAGGSLRLSCAASGRIFSYNAMGWYRQAPGKERELVAAITGGGSTNYADSVKGRFTISRDNAKNTVYLQMNSLKAEDTAVYYCAARSWSYKYWGQGTQVTVSS | high polyreactivity
QVQLVESGGGLVQAGGSLRLSCAASGSTLRAYTMGWYRQAPGKERELVATITRRGGTTYYADSVKGRFTISRDNAKNTVYLQMNSLKPEDTAVYYCAAKWYSTHRYDYWGQGTQVTVSS | high polyreactivity
QVQLVESGGGLVQAGGSLRLSCADSGRTFGGYAMGWYRQAPGKQRELVASITWSGGSTYYADSVKGRFTISRDNAKNNVYLQMNSLKPEDTAVYYCGARTYQSRSTRMDYWGQGTQVTVSS | low polyreactivity
QVQLVESGGGLVQAGGSLRLSCAASGFTFIYYAMGWYRQAPGKERELVAAIRWSGGSTYYADSVKGRFTISRDNAKNTVYLQMNSLKPEDTAVYYCAASWYWFAQKRVYYWGQGTQVTVSS | high polyreactivity
QVQLVESGGGLVQAGGSLRLSCAASGNIFSFYTMGWYRQAPGKERELVAAISWSGTSTYYADSVKGRFTISRDNAKNTVYLQMNSLKPEDTAVYYCAAVRRISRYDYWGQGTQVTVSS | high polyreactivity
QVQLVESGGGLVQAGGSLRLSCAAYGRTLGYYAMGWYRPAPGQERELVAAITGSDGSTYADSVKGRFTISRDNAKNTVYLQMNSLKPEDTAVYYCNSKNEHGSLGFDYWGQGTQVTVSS | high polyreactivity
RVQLVESGGGLVHAGCSLRLSCAASGNTFWYNAMGWYRQAPGKVRELVAAISYSGGGTYYADSVKGRFTISRDNAKNTVYLQMNSLKPEDTAVYYCAADTLQRSFVLYDYWGHGTQVTVSS | high polyreactivity
